In the Human Domainome abundance scans (Beltran et al. 2025):
± gives the uncertainty stated by the source.

B1: POU domain, class 5, transcription factor 1, residues 134 to 212; numbered along this chain, Q01860 (parent)
chain: EESQDIKALQKELEQFAKLLKQKRITLGYTQADVGLTLGVLFGKVFSQTTICRFEALQLSFKNMCKLRPLLQKWVEEAD

Variants of: B1
Experiment: abundance fitness (aPCA) (normalised: wild type 0, dead -1); higher = more abundant; growth selection in yeast, the domain comes from the species named
Details: Homo sapiens

| Variant | abundance fitness |
| --- | --- |
| C65R | -0.18 ± 0.073 |
| N63R | 0.037 ± 0.095 |
| N63F | -0.2 ± 0.43 |
| N63A | 0.045 ± 0.11 |
| N63G | -0.314 ± 0.1 |
| N63W | -0.832 ± 0.39 |
| A17T | 0.228 ± 0.38 |
| A17V | -0.145 ± 0.42 |
| Q15C | -0.218 ± 0.2 |
| Q15E | 0.07 ± 0.15 |
| Q15H | -0.27 ± 0.3 |
| Q15W | -0.442 ± 0.13 |
| Y29F | -0.761 ± 0.47 |
| Y29I | -0.771 ± 0.47 |
| Y29C | -0.64 ± 0.32 |
| Y29A | -0.41 ± 0.13 |
| Y29G | -0.56 ± 0.14 |
| Y29D | -0.422 ± 0.31 |
| Y29M | 0.18 ± 0.12 |
| Q22A | -0.151 ± 0.3 |
| E55V | -1.04 ± 0.41 |
| E55R | -0.607 ± 0.16 |
| E55G | -0.66 ± 0.15 |
| E55M | -0.907 ± 0.39 |

| Variant | abundance fitness |
| --- | --- |
| E55K | -0.495 ± 0.26 |
| L71C | -0.474 ± 0.2 |
| L71E | -0.344 ± 0.16 |
| L71P | -0.07 ± 0.17 |
| L71Q | -0.658 ± 0.27 |
| F61V | 0.031 ± 0.097 |
| F61A | -0.147 ± 0.12 |
| F61C | -0.441 ± 0.31 |
| F61K | -0.206 ± 0.16 |
| F61M | 0.04 ± 0.11 |
| F61Q | -0.111 ± 0.17 |
| F61I | 0.132 ± 0.24 |
| F61E | -0.8 ± 0.21 |
| T37M | 0.116 ± 0.12 |
| T37L | -0.283 ± 0.12 |
| T37F | 0.319 ± 0.23 |
| T37R | 0.339 ± 0.054 |
| T37G | 0.296 ± 0.06 |
| V34G | -0.518 ± 0.17 |
| T26R | 0.129 ± 0.14 |
| T26L | 0.004 ± 0.25 |
| T26Q | -0.123 ± 0.39 |
| T26A | 0.202 ± 0.15 |
| T26N | 0.268 ± 0.45 |

| Variant | abundance fitness |
| --- | --- |
| T26M | -0.256 ± 0.42 |
| V75S | -0.106 ± 0.24 |
| V75H | -0.025 ± 0.36 |
| V75C | -0.343 ± 0.26 |
| V75D | -0.413 ± 0.3 |
| V75M | -0.293 ± 0.23 |
| K21P | -0.353 ± 0.3 |
| V40K | 0.198 ± 0.16 |
| V40H | 0.12 ± 0.28 |
| V40W | -0.151 ± 0.14 |
| V40G | -0.01 ± 0.076 |
| V40Y | -0.237 ± 0.35 |
| Q10N | -0.086 ± 0.24 |
| Q10M | -0.063 ± 0.16 |
| Q10L | -0.214 ± 0.11 |
| A32C | -0.229 ± 0.32 |
| A32V | -0.785 ± 0.31 |
| A32H | -0.487 ± 0.41 |
| A32W | -0.682 ± 0.29 |
| K44E | 0.016 ± 0.077 |
| K44H | -0.181 ± 0.27 |
| K44M | -0.374 ± 0.39 |
| K44Y | -0.489 ± 0.44 |
| I6M | 0.1 ± 0.12 |

| Variant | abundance fitness |
| --- | --- |
| I6P | -0.015 ± 0.14 |
| I6V | -0.749 ± 0.2 |
| I6W | -0.351 ± 0.17 |
| I6L | -0.143 ± 0.1 |
| I6F | 0.052 ± 0.27 |
| C52E | 0.086 ± 0.31 |
| C52M | 0.451 ± 0.26 |
| C52K | 0.356 ± 0.25 |
| C52N | 0.175 ± 0.46 |
| C52R | 0.47 ± 0.18 |
| C52Y | -0.604 ± 0.4 |
| Q72G | -0.302 ± 0.11 |
| Q72A | -0.354 ± 0.13 |
| Q72T | -0.36 ± 0.17 |
| Q72S | -0.371 ± 0.15 |
| Q72I | -0.119 ± 0.3 |
| Q72K | -0.025 ± 0.18 |
| T49V | -0.272 ± 0.097 |
| T49Q | 0.206 ± 0.096 |
| T49F | -0.432 ± 0.46 |
| T49K | 0.235 ± 0.12 |
| T49H | 0.109 ± 0.21 |
| T49D | 0.044 ± 0.16 |
| D5E | -0.343 ± 0.42 |

| Variant | abundance fitness |
| --- | --- |
| D5V | -0.018 ± 0.41 |
| D5C | 0.057 ± 0.35 |
| D5N | 0.092 ± 0.41 |
| D5A | -0.126 ± 0.21 |
| L70Y | 0.262 ± 0.17 |
| G28S | -0.839 ± 0.32 |
| G28W | -0.813 ± 0.33 |
| G28T | -0.738 ± 0.37 |
| G28K | -0.569 ± 0.34 |
| G28N | -0.34 ± 0.42 |
| G28M | -0.465 ± 0.24 |
| G28L | -0.76 ± 0.22 |
| G28H | 0.386 ± 0.21 |
| G39R | -0.318 ± 0.095 |
| G39E | -0.469 ± 0.17 |
| G39D | -0.852 ± 0.42 |
| G39A | -0.534 ± 0.19 |
| K62M | 0.192 ± 0.23 |
| K62G | -0.146 ± 0.083 |
| K62V | -0.24 ± 0.14 |
| K62R | -0.143 ± 0.083 |
| K62C | -0.489 ± 0.44 |
| K62S | 0.041 ± 0.13 |
| K62I | -0.238 ± 0.4 |

| Variant | abundance fitness |
| --- | --- |
| K7P | -0.124 ± 0.099 |
| K7W | -0.173 ± 0.074 |
| K7A | -0.007 ± 0.062 |
| K7Q | -0.142 ± 0.1 |
| K7H | -0.193 ± 0.15 |
| K7D | 0.061 ± 0.098 |
| K7T | -0.162 ± 0.1 |
| A78P | -0.549 ± 0.23 |
| A78Q | 0.053 ± 0.27 |
| A78V | 0.216 ± 0.092 |
| L36H | 0.362 ± 0.15 |
| L36E | 0.155 ± 0.094 |
| L36F | 0.013 ± 0.26 |
| L36A | 0.273 ± 0.065 |
| L36G | -0.306 ± 0.085 |
| L36S | 0.105 ± 0.088 |
| L36Y | -0.037 ± 0.32 |
| L36Q | 0.283 ± 0.14 |
| K18V | -0.466 ± 0.16 |
| T30A | -0.667 ± 0.18 |
| T30S | 0.082 ± 0.085 |
| T30L | -0.853 ± 0.27 |
| T30E | -1.06 ± 0.48 |
| T30M | -0.526 ± 0.25 |

| Variant | abundance fitness |
| --- | --- |
| K73H | -0.349 ± 0.33 |
| K73W | -0.474 ± 0.14 |
| K73I | -0.448 ± 0.34 |
| G43A | -0.282 ± 0.3 |
| L57C | 0.035 ± 0.18 |
| L57M | 0.152 ± 0.16 |
| L57Q | 0.106 ± 0.2 |
| L57N | 0.261 ± 0.34 |
| L57H | 0.298 ± 0.2 |
| L57E | -0.694 ± 0.4 |
| L57A | -0.58 ± 0.22 |
| L57T | -0.344 ± 0.29 |
| L20G | -0.801 ± 0.23 |
| L20E | -0.313 ± 0.24 |
| L20P | -0.303 ± 0.24 |
| L20M | -0.452 ± 0.39 |
| E76Q | -0.173 ± 0.26 |
| E76D | 0.003 ± 0.19 |
| E76C | -0.066 ± 0.19 |
| E76K | -0.133 ± 0.14 |
| E76M | -0.017 ± 0.22 |
| E76A | -0.139 ± 0.13 |
| E76H | -0.032 ± 0.32 |
